Measurements: publication PMC4960239, “Flavoprotein-Mediated Tellurite Reduction: Structural Basis and Applications to the Synthesis of Tellurium-Containing Nanostructures” (Frontiers in Microbiology, 2016)

How the values were obtained:
O=[Te](O)O = experiment: purified protein; assay type: biochemical, Escherichia coli; conditions: 1 mM beta-mercaptoethanol
GorA = target: T1, GorA (Escherichia coli, UniProt P06715); experiment: Te0 formation, non-linear fit; assay type: biochemical; conditions: 1 mM NADPH, 1 mM beta-mercaptoethanol, pH 9, 37 °C; substrate inhibition
T1 construct: gene gor; His-tagged full-length, ASKA clone, HisTrap purified, ~49 kDa
T1 sequence (P06715 whole entry): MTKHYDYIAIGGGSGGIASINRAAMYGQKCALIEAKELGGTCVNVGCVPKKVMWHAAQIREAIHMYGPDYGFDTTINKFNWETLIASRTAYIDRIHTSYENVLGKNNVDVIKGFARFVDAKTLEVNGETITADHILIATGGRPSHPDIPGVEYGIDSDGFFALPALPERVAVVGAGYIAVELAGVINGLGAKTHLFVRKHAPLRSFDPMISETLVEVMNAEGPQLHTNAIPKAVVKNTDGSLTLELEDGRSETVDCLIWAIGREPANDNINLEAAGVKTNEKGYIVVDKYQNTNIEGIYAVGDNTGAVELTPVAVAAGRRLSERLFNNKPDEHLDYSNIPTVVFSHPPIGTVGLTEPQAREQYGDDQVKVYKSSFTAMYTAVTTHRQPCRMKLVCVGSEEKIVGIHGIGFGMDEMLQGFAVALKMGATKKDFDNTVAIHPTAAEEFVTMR

TrxB = target: T2, TrxB (Escherichia coli, UniProt P0A9P4); experiment: Te0 formation, non-linear fit; assay type: biochemical; conditions: 1 mM NADPH, 1 mM beta-mercaptoethanol, pH 10, 37 °C; substrate inhibition
T2 construct: His-tagged full-length, ASKA clone, HisTrap purified, ~35 kDa
T2 sequence (P0A9P4 2-321): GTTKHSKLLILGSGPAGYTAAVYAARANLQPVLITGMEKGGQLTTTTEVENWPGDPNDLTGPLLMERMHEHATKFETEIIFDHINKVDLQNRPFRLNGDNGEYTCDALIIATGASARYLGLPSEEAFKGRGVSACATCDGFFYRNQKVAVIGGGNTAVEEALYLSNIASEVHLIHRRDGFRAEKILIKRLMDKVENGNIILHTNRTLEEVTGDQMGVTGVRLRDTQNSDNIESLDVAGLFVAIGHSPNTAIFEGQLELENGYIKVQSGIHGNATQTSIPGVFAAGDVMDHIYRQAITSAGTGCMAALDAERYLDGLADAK

E3 = target: T3, E3 (Escherichia coli, UniProt P0A9P0); experiment: Te0 formation, non-linear fit; assay type: biochemical; conditions: 1 mM NADPH, 1 mM beta-mercaptoethanol, pH 6, 37 °C; substrate inhibition
T3 construct: gene lpdA; His-tagged full-length, ASKA clone, HisTrap purified, ~56 kDa
T3 sequence (P0A9P0 2-474): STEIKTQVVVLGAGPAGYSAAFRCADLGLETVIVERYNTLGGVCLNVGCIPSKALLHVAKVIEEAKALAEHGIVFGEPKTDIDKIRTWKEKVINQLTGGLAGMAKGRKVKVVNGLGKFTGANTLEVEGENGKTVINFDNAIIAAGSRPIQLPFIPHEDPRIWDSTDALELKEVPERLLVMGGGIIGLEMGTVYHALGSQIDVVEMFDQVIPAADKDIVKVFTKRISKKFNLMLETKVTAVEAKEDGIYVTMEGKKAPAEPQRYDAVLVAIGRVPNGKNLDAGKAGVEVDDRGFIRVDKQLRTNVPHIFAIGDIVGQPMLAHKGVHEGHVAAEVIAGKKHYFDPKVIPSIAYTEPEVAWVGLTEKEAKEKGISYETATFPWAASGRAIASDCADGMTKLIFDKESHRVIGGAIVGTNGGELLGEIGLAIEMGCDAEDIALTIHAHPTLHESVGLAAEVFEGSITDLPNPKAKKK

AhpF (Escherichia coli K-12) gave a Km (O=[Te](O)O; 1 mM NADH, pH 10, 37 °C) of 819.6 µM and a Vmax (O=[Te](O)O; 1 mM NADH, pH 10, 37 °C) of 77900 µmol/min/mg.
Molecule E3 (Escherichia coli K-12) has a Km (O=[Te](O)O; 1 mM NADPH, pH 6, 37 °C) of 47.94 µM and a Vmax (O=[Te](O)O; 1 mM NADPH, pH 6, 37 °C) of 84.5 µmol/min/mg.
For TrxB (Escherichia coli K-12), the Km (O=[Te](O)O; 1 mM NADPH, pH 10, 37 °C) was 114.5 µM and the Vmax (O=[Te](O)O; 1 mM NADPH, pH 10, 37 °C) was 9590 µmol/min/mg.
For GorA (Escherichia coli K-12), the Km (O=[Te](O)O; 1 mM NADPH, pH 9, 37 °C) was 89.47 µM and the Vmax (O=[Te](O)O; 1 mM NADPH, pH 9, 37 °C) was 6310 µmol/min/mg.
`O=[Te](O)O` [tellurite] was tested, and the “Ki apparent” value (GorA) was 232.7 µM, the “Ki apparent” value (TrxB) was 37.13 µM and the “Ki apparent” value (E3) was 63.01 µM.
Molecule YkgC (Escherichia coli K-12) has a Km (O=[Te](O)O; 1 mM NADH, pH 9, 37 °C) of 517.1 µM and a Vmax (O=[Te](O)O; 1 mM NADH, pH 9, 37 °C) of 2700 µmol/min/mg.
Work on NorW (Escherichia coli K-12) yielded a Km (O=[Te](O)O; 1 mM NADH, pH 11, 42 °C) of 694.9 µM and a Vmax (O=[Te](O)O; 1 mM NADH, pH 11, 42 °C) of 5350 µmol/min/mg.
